Data on 50 sequences can be found in the supplement of paper PMC9112550, “Optimization of the antimicrobial peptide Bac7 by deep mutational scanning” (BMC Biology, 2022).

For the data set, the system named is Escherichia coli TOP10. The data set can be described thus: shrunken log2 fold change of peptide-encoding DNA abundance (4.5 h post-induction vs induction); higher = less antimicrobial activity (less host growth inhibition). The note with it: time post-induction: 4.5 h; library: site-saturation at positions 5, 18, 19, 20.
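Note: peptides expressed intracellularly from a pBAD plasmid library in pooled LB shake-flask culture, induced with 0.3% L-arabinose, DNA abundance read by NGS, three biological replicates, DESeq2 with apeglm shrinkage.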

RRIRQRPPRLPRPRPRPFHWPRP: the “shrunken log2 fold change” value was found to be 0.0728. As for RRIRNRPPRLPRPRPRPESEPRP, the figure is 0.0333; as for RRIRIRPPRLPRPRPRPLKYPRP, -0.0551. Then RRIRLRPPRLPRPRPRPMVAPRP, with -0.147; and RRIRTRPPRLPRPRPRPSFNPRP, with -0.507; and RRIRCRPPRLPRPRPRPKGEPRP, with 0.0643. As for RRIRDRPPRLPRPRPRPWEAPRP, the figure is -0.0176.

On to RRIRMRPPRLPRPRPRPNPRPRP, for which the “shrunken log2 fold change” value is 0.718. Then RRIRYRPPRLPRPRPRPGHQPRP, with 0.0299; and RRIRGRPPRLPRPRPRPAHNPRP, with 0.157. RRIRHRPPRLPRPRPRPWSGPRP: the “shrunken log2 fold change” value was -0.17.

On to RRIRKRPPRLPRPRPRPKFYPRP, for which the “shrunken log2 fold change” value is -0.0589. Take RRIRSRPPRLPRPRPRPCKYPRP: the “shrunken log2 fold change” value is -0.0911.

On to RRIRVRPPRLPRPRPRPKGHPRP, for which the “shrunken log2 fold change” value was -0.0413. Then RRIRKRPPRLPRPRPRPHIAPRP, with -0.415; and RRIRIRPPRLPRPRPRPLFTPRP, with -0.374. As for RRIRLRPPRLPRPRPRPAQYPRP, the figure is -0.0702; as for RRIRIRPPRLPRPRPRPEWIPRP, 0.0384. As for RRIRPRPPRLPRPRPRPVHWPRP, the figure is 0.00332.

RRIRDRPPRLPRPRPRPPAMPRP: the “shrunken log2 fold change” value was determined as 0.87. As for RRIRLRPPRLPRPRPRPHWFPRP, the figure is -0.08; as for RRIRDRPPRLPRPRPRPYSHPRP, -0.471. RRIRQRPPRLPRPRPRPPDPPRP: the “shrunken log2 fold change” value worked out at 0.151. Then RRIRPRPPRLPRPRPRPDVTPRP, with -0.399; and RRIRARPPRLPRPRPRPKKEPRP, with 0.0428. For RRIRWRPPRLPRPRPRPRAVPRP, the “shrunken log2 fold change” value was determined as 0.521. As for RRIRARPPRLPRPRPRPDVAPRP, the figure is 1.35; as for RRIRARPPRLPRPRPRPCCLPRP, 0.0817. As for RRIRSRPPRLPRPRPRPPQLPRP, the figure is 0.209. With RRIRDRPPRLPRPRPRPGRVPRP, the “shrunken log2 fold change” value was 0.166.

With RRIRGRPPRLPRPRPRPHRFPRP, the “shrunken log2 fold change” value is 0.101. Then RRIRARPPRLPRPRPRPCCRPRP, with 0.406; and RRIRVRPPRLPRPRPRPYYRPRP, with -0.309. As for RRIRLRPPRLPRPRPRPGPPPRP, the figure is 0.445; as for RRIRIRPPRLPRPRPRPAAGPRP, 0.0506; as for RRIRPRPPRLPRPRPRPNEEPRP, -0.0581.

For the sequence RRIRWRPPRLPRPRPRPFVRPRP, the “shrunken log2 fold change” value was -0.127.

On to RRIRRRPPRLPRPRPRPESQPRP, for which the “shrunken log2 fold change” value came out at 0.303. As for RRIRYRPPRLPRPRPRPTCTPRP, the figure is -0.229.

As to RRIRNRPPRLPRPRPRPNKGPRP, the “shrunken log2 fold change” value was -0.134.

For the sequence RRIRFRPPRLPRPRPRPMIGPRP, the “shrunken log2 fold change” value is 0.0266. Regarding RRIRCRPPRLPRPRPRPGHIPRP, the “shrunken log2 fold change” value was -0.458. Then RRIRSRPPRLPRPRPRPSIKPRP, with -0.613; and RRIRCRPPRLPRPRPRPLCMPRP, with -0.0162; and RRIRERPPRLPRPRPRPFLSPRP, with -0.11. Consider RRIRPRPPRLPRPRPRPWGYPRP, for which the “shrunken log2 fold change” value was -0.0649.

Consider RRIRERPPRLPRPRPRPVKHPRP, for which the “shrunken log2 fold change” value turned out to be 0.0875. Turning to RRIRYRPPRLPRPRPRPAHSPRP, the “shrunken log2 fold change” value is -0.0299. Then RRIRYRPPRLPRPRPRPPFMPRP, with -0.422. As for RRIRWRPPRLPRPRPRPVAVPRP, the “shrunken log2 fold change” value stood at 0.465.
